Laboratory results reported in IntAct's records for PubMed 19478074.

B1: Transforming growth factor-beta-induced protein ig-h3 (Homo sapiens), Q15582 (parent)
chain: MALFVRLLALALALALGPAATLAGPAKSPYQLVLQHSRLRGRQHGPNVCAVQKVIGTNRKYFTNCKQWYQRKICGKSTVISYECCPGYEKVPGEKGCPAALPLSNLYETLGVVGSTTTQLYTDRTEKLRPEMEGPGSFTIFAPSNEAWASLPAEVLDSLVSNVNIELLNALRYHMVGRRVLTDELKHGMTLTSMYQNSNIQIHHYPNGIVTVNCARLLKADHHATNGVVHLIDKVISTITNNIQQIIEIEDTFETLRAAVAASGLNTMLEGNGQYTLLAPTNEAFEKIPSETLNRILGDPEALRDLLNNHILKSAMCAEAIVAGLSVETLEGTTLEVGCSGDMLTINGKAIISNKDILATNGVIHYIDELLIPDSAKTLFELAAESDVSTAIDLFRQAGLGNHLSGSERLTLLAPLNSVFKDGTPPIDAHTRNLLRNHIIKDQLASKYLYHGQTLETLGGKKLRVFVYRNSLCIENSCIAAHDKRGRYGTLFTMDRVLTPPMGTVMDVLKGDNRFSMLVAAIQSAGLTETLNREGVYTVFAPTNEAFRALPPRERSRLLGDAKELANILKYHIGDEILVSGGIGALVRLKSLQGDKLEVSLKNNVVSVNKEPVAEPDIMATNGVVHVITNVLQPPANRPQERGDELADSALEIFKQASAFSRASQRSVRLAPVYQKLLERMKH
partner: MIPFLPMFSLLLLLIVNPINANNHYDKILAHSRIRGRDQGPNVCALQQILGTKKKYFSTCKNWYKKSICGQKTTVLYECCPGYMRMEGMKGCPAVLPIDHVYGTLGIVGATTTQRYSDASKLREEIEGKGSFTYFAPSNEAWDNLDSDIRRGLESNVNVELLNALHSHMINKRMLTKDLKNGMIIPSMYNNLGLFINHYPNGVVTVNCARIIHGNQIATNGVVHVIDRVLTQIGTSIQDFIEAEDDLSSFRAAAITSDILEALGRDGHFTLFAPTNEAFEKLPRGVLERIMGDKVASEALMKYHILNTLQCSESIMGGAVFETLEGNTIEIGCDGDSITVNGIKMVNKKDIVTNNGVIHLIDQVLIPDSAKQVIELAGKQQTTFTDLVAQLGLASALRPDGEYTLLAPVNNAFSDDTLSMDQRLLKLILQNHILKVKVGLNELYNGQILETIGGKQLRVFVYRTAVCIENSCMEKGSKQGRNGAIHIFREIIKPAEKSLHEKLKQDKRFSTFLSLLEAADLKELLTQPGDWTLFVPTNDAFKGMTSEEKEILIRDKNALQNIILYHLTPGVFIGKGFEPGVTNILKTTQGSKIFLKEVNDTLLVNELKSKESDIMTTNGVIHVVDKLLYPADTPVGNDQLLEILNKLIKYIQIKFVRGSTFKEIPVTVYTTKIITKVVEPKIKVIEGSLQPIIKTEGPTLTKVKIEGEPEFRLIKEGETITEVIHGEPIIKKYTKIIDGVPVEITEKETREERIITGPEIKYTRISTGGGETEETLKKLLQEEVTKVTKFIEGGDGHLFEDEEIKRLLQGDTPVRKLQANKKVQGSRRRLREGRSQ

Variants of: B1
Details: with postn_human POSTN

effect of a mutation on the interaction | Variant
disrupting interaction strength | R124H
